We go through 1 substance from patent publication US10737082B2, “Methods for lymphatic delivery of active agents” (Sorrento Therapeutics, Inc., priority 2015, dated 2020).

Data set [1] can be described thus: Rate of blood serum absorption of Etanercept after delivery to the skin. The class given is in vivo. The conditions noted are these: administration to the skin compared with i.v., s.c., or i.d. methods, FIG. 13.
The nature of data set [2]: In vivo near infrared imaging of lymphatic delivery of fluorescently tagged Etanercept after needle array administration to the skin. The conditions noted are these: needle array device placed dorsally on rats, FIG. 8 and 9. More on the design: species or system rat. On the procedure: The ability to deliver the protein therapeutic Etanercept directly to the lymphatic system via administration to the skin was tested. Etanercept was fluorescently tagged for in vivo visualization using near infrared light as previous described, see Sevick-Muraca et al., J. Clin Invest., 124 (3), 905-914 (2014), which is incorporated by reference herein for its teachings thereof. Etanercept was administered to the skin of rats by placing a delivery device comprising an array of needles dorsally on the rats.

Data set [3] can be described thus: Biodistribution of Etanercept across multiple tissue types following delivery to the skin. The class given is in vivo, rat. The conditions noted are these: delivery to the skin compared to traditional i.v., s.c., or i.d. methods, FIG. 10. The source says: The biodistribution of Etanercept across multiple tissues types following delivery was investigated.
Data set [4] concerns hind limb arthritic rat model. As to the kind of experiment: Reduction of swelling of inflamed tissues measured by ankle diameter. Format: in vivo. The conditions noted are these: same 3 mg dosage, administration to the skin compared to subcutaneous injection, FIG. 12. On the procedure: Furthermore, there was a 17% reduction in the swelling of these inflamed tissues after administration of the same 3 mg dosage of Etanercept as measured by ankle diameter (FIG. 12).

Data set [5] can be described thus: Localization of Etanercept to inflamed tissues in hind limb arthritic rat model. The conditions noted are these: administered to the skin compared to subcutaneous delivery, FIG. 11A and B. Format: in vivo.

As for Etanercept, the “blood serum absorption rate” value in data set [1] was “approximately the same”. The “lymphatic uptake and distribution after administration to the skin” value in data set [2] is “uptake by the lymphatic vasculature and subsequent distribution to primary and secondary lymph node tissues”. The “levels within the axillary and inguinal lymph nodes” value in data set [3] was “much higher levels”. Besides, the “reduction in the swelling of inflamed tissues (ankle diameter)” value in data set [4] was 17%. The “levels localized to inflamed tissues” value in data set [5] is “higher levels”.
